Drawing on PMC8534323, this text covers Kd, decrease of binding against native LL-37 and loss of binding against native LL-37 for 6 substances.

Assay [1] concerns the target Als3 (agglutinin-like sequence protein 3), isolated from the surface of C. albicans (C. albicans (endogenous in strain ATCC 10231)) (UniProt Q59L12). Description: SPR. (In general: SPR reads the build-up and loss of mass on a sensor chip optically.)
Assay [2] deals with Phosphoglycerate mutase 1 (Gpm1), recombinant (C. albicans) (UniProt P82612). Description: SPR.
Chain of Phosphoglycerate mutase 1 (Gpm1), recombinant (C. albicans) (P82612 whole entry): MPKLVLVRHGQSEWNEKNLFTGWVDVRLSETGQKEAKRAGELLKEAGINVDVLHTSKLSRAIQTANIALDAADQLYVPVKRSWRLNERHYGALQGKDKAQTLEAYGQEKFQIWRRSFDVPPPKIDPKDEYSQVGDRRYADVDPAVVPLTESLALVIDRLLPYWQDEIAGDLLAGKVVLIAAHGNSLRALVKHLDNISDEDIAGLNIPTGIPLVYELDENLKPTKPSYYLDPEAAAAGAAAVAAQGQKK
The target of assay [3] is enolase (Eno1) (C. albicans (endogenous in strain ATCC 10231)) (UniProt P30575). Description: SPR.
In assay [4] the target is triosephosphate isomerase 1 (Tpi1) (C. albicans (endogenous in strain ATCC 10231)) (UniProt Q9P940). Description: SPR.
Chain of triosephosphate isomerase 1 (Tpi1) (C. albicans (endogenous in strain ATCC 10231)) (Q9P940 whole entry): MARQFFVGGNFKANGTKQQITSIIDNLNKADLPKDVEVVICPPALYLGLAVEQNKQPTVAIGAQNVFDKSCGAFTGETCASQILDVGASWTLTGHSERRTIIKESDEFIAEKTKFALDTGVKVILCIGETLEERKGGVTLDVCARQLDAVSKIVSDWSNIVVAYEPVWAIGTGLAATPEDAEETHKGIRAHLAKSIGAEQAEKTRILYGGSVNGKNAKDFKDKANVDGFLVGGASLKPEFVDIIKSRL
Assay [5] has as its target Als3 (agglutinin-like sequence protein 3), isolated from the surface of C. albicans (C. albicans (endogenous in strain ATCC 10231)) (UniProt Q59L12). Description: ELISA-like microplate ligand-binding assay; fungal protein immobilised on the microplate, soluble fluorescent-labeled histones; saturation one-site binding model.
For assay [6], the target named is Phosphoglycerate mutase 1 (Gpm1), recombinant (C. albicans) (UniProt P82612). The assay is described as above.
The target in assay [7] is enolase (Eno1) (C. albicans (endogenous in strain ATCC 10231)) (UniProt P30575). Described as above.

By Kd is commonly meant the concentration at which binding is half-saturated.

On to cathelicidin-derived peptide LL-37, for which the Kd was found to be 228 nM in assay [1], 598 nM in assay [2], 14.6 nM in assay [3] and 68.3 nM in assay [4].

Consider myeloperoxidase (MPO) (enzyme), for which the equilibrium dissociation constant (Kd) in assay [1] worked out at 11.6 nM; in assay [2] it was 353 nM; in assay [3] it was 78.7 nM; in assay [4], 45 nM.

For “histone H3 (from UniProt P68431 1-136) (natural protein)”, the equilibrium dissociation constant (Kd) in assay [5] was 23.4 nM; in assay [6], 258 nM; in assay [7], 1230 nM.

Turning to “histone H2 (from UniProt P0C0S8 1-130) (natural protein)”, the values for the equilibrium dissociation constant (Kd) in assay [5] and in assay [7] were 1790 nM and 911 nM, respectively.

As for “lactotransferrin (LF) (from UniProt P02788 20-710) (natural protein)”, the dissociation constant (Kd) in assay [1] came to 85.9 nM.

As for LL-37(7)Cit (peptide), the decrease of binding against native LL-37 in assay [1] and in assay [3] was 50% in each case. The loss of binding against native LL-37 in assay [2] was 75%.
